Measurements from paper PMC12051053.

Target: H3K9ac nucleosome with 147 bp DNA

Km for the nucleosome substrate in the Western blot-based deacylation assay: 0.088 µM
Substance: G60A SIRT6 (from UniProt Q8N6T7 2-355) (enzyme)
